How the values were obtained:
[1] = target: T1, recombinant human NRP-1 protein (human, UniProt O14786 22-856); assay: SPR
T1 sequence (looked up): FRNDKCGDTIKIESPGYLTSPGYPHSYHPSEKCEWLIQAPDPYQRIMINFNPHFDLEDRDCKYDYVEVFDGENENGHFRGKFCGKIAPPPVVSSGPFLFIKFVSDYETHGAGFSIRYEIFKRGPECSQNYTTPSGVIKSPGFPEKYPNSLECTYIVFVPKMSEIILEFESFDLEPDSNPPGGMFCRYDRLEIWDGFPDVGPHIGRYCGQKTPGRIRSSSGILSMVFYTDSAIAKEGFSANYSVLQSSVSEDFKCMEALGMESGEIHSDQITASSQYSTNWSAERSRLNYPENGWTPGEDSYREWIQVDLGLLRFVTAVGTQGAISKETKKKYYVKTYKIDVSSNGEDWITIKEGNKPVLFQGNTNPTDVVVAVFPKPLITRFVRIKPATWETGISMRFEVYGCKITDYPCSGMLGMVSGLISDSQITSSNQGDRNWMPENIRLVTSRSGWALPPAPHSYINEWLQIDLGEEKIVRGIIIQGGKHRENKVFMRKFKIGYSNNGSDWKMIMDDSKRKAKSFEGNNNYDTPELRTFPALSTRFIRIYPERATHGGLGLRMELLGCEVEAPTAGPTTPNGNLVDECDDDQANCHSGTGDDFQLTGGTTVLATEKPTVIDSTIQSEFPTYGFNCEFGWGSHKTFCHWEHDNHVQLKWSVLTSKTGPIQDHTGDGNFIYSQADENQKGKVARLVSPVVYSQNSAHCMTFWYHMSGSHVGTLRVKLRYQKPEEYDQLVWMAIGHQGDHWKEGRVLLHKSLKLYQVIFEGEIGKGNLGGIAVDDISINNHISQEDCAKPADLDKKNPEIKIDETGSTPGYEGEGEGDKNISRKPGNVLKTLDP

[2] = target: T2, recombinant rat NRP-1 protein (rat, UniProt Q9QWJ9 22-855); assay: SPR
T2 sequence (looked up): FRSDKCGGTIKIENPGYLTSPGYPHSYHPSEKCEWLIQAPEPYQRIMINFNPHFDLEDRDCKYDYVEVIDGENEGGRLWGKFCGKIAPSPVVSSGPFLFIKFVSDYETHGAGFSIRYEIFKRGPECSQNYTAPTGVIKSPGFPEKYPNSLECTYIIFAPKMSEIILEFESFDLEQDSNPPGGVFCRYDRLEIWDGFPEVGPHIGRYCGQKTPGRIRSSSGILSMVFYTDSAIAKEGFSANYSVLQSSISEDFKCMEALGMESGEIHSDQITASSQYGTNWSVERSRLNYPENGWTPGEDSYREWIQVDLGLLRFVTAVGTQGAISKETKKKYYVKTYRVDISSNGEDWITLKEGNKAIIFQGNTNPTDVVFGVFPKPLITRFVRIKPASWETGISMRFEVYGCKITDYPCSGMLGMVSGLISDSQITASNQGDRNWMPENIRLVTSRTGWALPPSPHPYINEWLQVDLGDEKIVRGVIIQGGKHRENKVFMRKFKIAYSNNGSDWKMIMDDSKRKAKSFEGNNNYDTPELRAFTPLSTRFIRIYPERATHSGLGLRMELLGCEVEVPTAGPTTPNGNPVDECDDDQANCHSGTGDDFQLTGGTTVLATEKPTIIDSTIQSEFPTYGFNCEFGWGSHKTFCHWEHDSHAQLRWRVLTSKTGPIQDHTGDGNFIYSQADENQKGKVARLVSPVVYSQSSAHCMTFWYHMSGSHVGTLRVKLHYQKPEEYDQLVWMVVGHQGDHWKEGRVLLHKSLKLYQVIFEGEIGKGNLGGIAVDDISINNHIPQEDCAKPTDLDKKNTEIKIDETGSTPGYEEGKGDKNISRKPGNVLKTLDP

Kd [1]: 0.5 µM | Kd [2]: 8.7 µM
Binder: KDKPPR [KDKPPR peptide]

From article PMC7673487 (International Journal of Nanomedicine, 2020)
